Experimental data published in the supplement of paper PMC9170038.

System: MS2 coat protein
Assay: apparent KD of MS2 coat protein; higher = weaker reporter binding
Settings: Eterna round: R107
Method in brief: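 Apparent KD is reported per design as the median of normalised binding-curve fits across its clusters. The RNA switches were made by on-chip transcription from Illumina sequencing clusters. SNAP-549-labelled MS2 coat protein was then added in twofold steps (0.7 or 1.5 nM to 3 µM; 0.8–1.5 h to 10–20 min per step) in 100 mM Tris-HCl pH 7.5, 80 mM KCl, 4 mM MgCl2, without or with constant ligand.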

[1] = input ligand: theophylline 20 uM
[2] = input ligand: tryptophan 2.4 mM
[3] = input ligand: theophylline 2 mM

Sequence	apparent KD of MS2 coat protein (input ligand: arginine 13.2 mM)	apparent KD of MS2 coat protein [1]	apparent KD of MS2 coat protein [2]	apparent KD of MS2 coat protein [3]	apparent KD of MS2 coat protein (input ligand: none)
UAGAAGAACAUGCGGGCUCCGGACGGUGAUACCAGAUCGAAAAGGAUCCCUUGGCAGCACUGCACAUGAGGAUCACCCAUGUGCA [theeternabot_exclusion_MS2_Theo_A_7]	11.8 nM	11 nM	10.1 nM	–	–
UAGUCCGCGACGGCCGCCACUCGCUGAUGCACAUGUGUCCGGGACAUGAGGAUCACCCAUGUUUCGAGGACCGGGUCGAUCCUAA [Same State Tryptophan B GF 5]	37.5 nM	81.5 nM	–	91.6 nM	–
UAUCCACAUGAGGAUCACCCAUGUUAGGAAGGAGCGGUGAAUGAACCAGGUAGGUCGCCUAGCUGAGGACCGUCGAUGGAUUCGU [Exclusion - Arginine A (Freestyle 16)]	13.7 nM	–	18.4 nM	28.2 nM	27.3 nM
UAUCUACAUGAAUAGGUUAUUCGAUUAUUUCGAGGACCGGUACGGCCGCCACUCGUUAACAUAUACAUGAGGAUCACCCAUGUUA [JR_Nu_SSTryptoA_Sub024]	16 nM	22.7 nM	–	21.5 nM	–
UCAAUACAGUCGGCCGCCACUGUAACCAAACCUACAUACCAACAUGAGGAUCACCCAUGUUUAUACAGGACCGGGACCUCUAUGA [theeternabot_sameState_MS2_Trp_B_10]	32.6 nM	45.8 nM	–	46.4 nM	–
UCACAUGAGGAUCACCCAUGUGUCAGAGAAGGAGCGGCCGCAAGGCCAGGUAGGUCGCUCGGGUAUGGUGAGGUUCACCCGUGUG [#1 Exclusion - Arginine A Attempt #13 (Inspired by cyborg)]	28.3 nM	73 nM	56.7 nM	57 nM	47.3 nM
UCACGGCACUGAAGGAGCGAGUUGACAAACAUGAGGAUCACCCAUGUUAUGGGUUGUUAAUCUCAGGUAGGUCGCAGUUGUCGUG [Same State Arginine B GF 21]	163 nM	418 nM	388 nM	458 nM	379 nM
UCCUCAUGGCAUGAUACCAGACCUAACAUGAGGAUCACCCAUGUAUCAGGCAAUUGUUACGUCCCUUGGCAGCAUGUAUGCCGAC [Theo B SS t4]	33.6 nM	91.1 nM	60.8 nM	–	–
UCCUGCAGAGCGGCCGCCACUGUAUUGCGUGAGGAUGACCCAACAUGAGGAUCACCCAUGUUGUUUAGGACCGGGCUUGCCACGA [opmullin%]	13.7 nM	21.2 nM	–	15 nM	–
UCGACAGUGAACGAUACCAGCGUCACGUGGCCGGUGGUCACAUGAGGAUCACCCAUGUAACGCCCUUGGCAGCGUGCACGUAUCC [Berisoor]	17.5 nM	78 nM	25.5 nM	–	–
UCGCAUUGCUCAGAUACCAGACAUGAGGAUCACCCAUGUACCAAGGUACCCGAAAGGAAUGUCCCUUGGCAGCUGAGCAAUGCGU [MAT - Exclusion Theophlline B - Mod of Eli - D19]	10.5 nM	14 nM	10.4 nM	–	–
UCGCCCGGGUCGGCCGCCACUGAGGUGAUGUGACAUGAGGAUCACCCAUGUUGUCAUGUGGCACAUAGGACCGGGACCCGGGCGA [Exclusion - Tryptophan B Attempt #3 (HarryS)]	16.4 nM	41 nM	22.5 nM	16.8 nM	26.3 nM
UCGCUCGCCGUAAGGCGAGCGAGUUGCGAUACCAGCCCGGAAACGGGCCCUUGGCAGCGCACAUGAGGAUCACCCAUGUCAUGUU [#1 Exclusion - Theophylline A Attempt #5 (HarryS)]	18.3 nM	35.1 nM	19.7 nM	24.3 nM	19.5 nM
UCGUGUGUUUCGGAUACCAGUGAAAUCGAUACAUGAGGAUCACCCAUGUGAGAGGAUGUACACCCUUGGCAGCUGGCUGUUGCGG [zezmullin]	24 nM	36.2 nM	34.2 nM	–	–
UCUUACUUGGUAGAUACCAGCGUGUUAUCUUUCUUUUGACAUGAGGAUCACCCAUGUAUAUGCCCUUGGCAGCUGCAUAGUGUGU [#02 Same State - Theophylline B]	26.9 nM	41.7 nM	30.1 nM	–	–
UCUUACUUGGUAGAUACCAGCGUGUUAUCUUUCUUUUGACAUGAGGAUCACCCAUGUAUAUGCCCUUGGCAGCUGCGUAGUGUGU [#03 Same State - Theophylline B]	21.6 nM	35.7 nM	27.4 nM	–	–
UCUUUUUUCUUUUCUUCUUUCGGUUCUUUUCGAGGACCGGUACGGCCGCCACUCGAAACAUGAGGAUCACCCAUGUUUUGGUUUU [Trypto a]	15.9 nM	17.6 nM	–	13.7 nM	–
UGACAUUGCUCAGAUACCAGACAUGAGGAUCACCCAUGUACCAAGAAAACGUACAAUAAUGUCCCUUGGCAGCUGAGCAAUGUCU [TheoBX 9 #MS2Left #Theo2]	64.8 nM	180 nM	93.6 nM	–	–

Sequence	apparent KD of MS2 coat protein (input ligand: arginine 13.2 mM)	apparent KD of MS2 coat protein [1]	apparent KD of MS2 coat protein [2]	apparent KD of MS2 coat protein [3]	apparent KD of MS2 coat protein (input ligand: none)
UGACAUUGCUCAGAUACCAGACAUGAGGAUCACCCAUGUACCAAGAAAGUACAAUAAAAUGUCCCUUGGCAGCUGAGCAAUGUCU [TheoBX 8 #MS2Left #Theo2]	61.2 nM	137 nM	66.9 nM	–	–
UGACAUUGCUGCGAUACCAGACAUGAGGAUCACCCAUGUGCCAAAUAAACGUACAUAAAUGUCCCUUGGCAGCGCAGCAAUGUCU [MAT - Exclusion Theophlline B - Mod of Eli - D29]	44.9 nM	112 nM	61 nM	–	–
UGAUGGUACGGAAGGAGCGUGUAAGAACAAGAACAUGAGGAUCACCCAUGUAUUAAUUUAACACAGGUAGGUCGCCGAGUUAUUG [11.G]	17.8 nM	26.7 nM	16.5 nM	23.2 nM	17.3 nM
UGCAAAUGAUGAGAUACCAGUUCAGUUAAAUACAUGAGGAUCACCCAUGUCAGGGAACUCAACCCUUGGCAGCUCGAUGCACUCA [theeternabot_sameState_MS2_Theo_B_43]	48 nM	56.7 nM	59 nM	–	–
UGCCCUGCGAGCGCUCGCAGGGCAGCGGAUACCAGCGAGGUCCAUCGCCCUUGGCAGCCGAACAUGAGGAUCACCCAUGUCGGUG [Same State - Theophylline A Attempt #9 (HarryS)]	11.4 nM	18.9 nM	13.2 nM	144 nM	14.1 nM
UGCUAGUGAUCGGCCGCCACUGGCACCUUGAGGAUCCUGCUAAAGUACAUGAGGAUCACCCAUGUCAGGACCGGGAUCAUCAGUG [Onveusonri]	9.02 nM	11.8 nM	–	10.8 nM	–
UGGCGAGAAGGAAGGAGCGUCAGCUGAGUUACAUGAGGAUCACCCAUGUUUUACAUUGUGUGACAGGUAGGUCGCCUUCUGCCCU [SS-ArgB20]	15.7 nM	18.8 nM	13.5 nM	16.9 nM	14 nM
UGGGUACAUGAGGAUCACCCAUGUACUGAAGGAGCGGGACGAAUCUCAGGUAGGUCGCAGACAUGAGGAUCACCCAUGUAGUGGA [Exclusion Arginine A GF 15]	13.9 nM	17.8 nM	14.6 nM	17.2 nM	15.9 nM
UGGGUAGCAUAGAUUGAUAGUUAAACUGAAGGAGCGAGAAUAAUCUCAGGUAGGUCGCAGACAUGAGGAUCACCCAUGUAGAUGG [Same State Arginine A GF16]	47 nM	129 nM	68 nM	88.8 nM	122 nM
UGGGUCGGAUGAGUAAAUUGUCCGACGUAUCGAGGACCGGUACGGCCGCCACUCGGUUGUACAUGAGGAUCACCCAUGUCAGGGU [#1 Same State - Tryptophan A Attempt #16 (HarryS)]	40.5 nM	351 nM	206 nM	536 nM	436 nM
UGGGUCGGAUGAGUAAAUUGUCGGACUCAUCGAGGACCGGUACGGCCGCCACUCGGUUGUACAUGAGGAUCACCCAUGUCAGGGU [#1 Same State - Tryptophan A Attempt #17 (HarryS)]	47.4 nM	336 nM	–	749 nM	–
UGGUACAUGAGGAUCACCCAUGUCCUCAUCCGAGGACCGGUACGGCCGCCACUCGAAAUUGCGAUCGGCACAAAACAAAUGCUUG [theeternabot_sameState_MS2_Trp_A_39]	87.8 nM	205 nM	–	179 nM	–
UGGUACAUGAGGAUCACCCAUGUUCCAGAUACCAGUGUCCCGCUGCACCCUUGGCAGCUGGUGGUACAUGAGGAUCACCCAUGUG [Exclusion Theophylline A GF11]	24.3 nM	42.7 nM	39 nM	56.4 nM	34.1 nM
UGGUAUGUAGGAAGGAGCGCAUACUUCACAUGAGGAUCACCCAUGUCAAGACGUGAGUCAGUGCAGGUAGGUCGCCUAGUUAUGA [Same State - Arginine B (Freestyle 21)]	31.2 nM	49.1 nM	33.7 nM	36.1 nM	42.9 nM
UGUAACAUGAGGAUCACCCAUGUGAGUGAUACCAGACUAGUGUUGGUCCCUUGGCAGCACGCUGGGCGAGUGUGUAGUCUAUGCG [Same State - Theophylline A (Freestyle 17)]	64.5 nM	100 nM	80.5 nM	–	–
UGUAACAUGAGGAUCACCCAUGUGAGUGAUACCAGAUAAGUAGUAGUCCCUUGGCAGCAUAUUGGGCGAGUGUAUAGUCUAUGCG [Same State - Theophylline A (Freestyle 9)]	125 nM	207 nM	152 nM	–	–
UGUAGUACCAGACAUGAGGAUCACCCAUGUCGAGGACCGGUACGGCCGCCACUCGGCAGUUUGCGUCCUCAGGUACUCCGGGUAA [Dianreti]	14.4 nM	18.5 nM	–	14.9 nM	–
